Substrate in this data set: CC(=O)SCCNC(=O)CCNC(=O)[C@H](O)C(C)(C)COP(=O)(O)OP(=O)(O)OC[C@H]1O[C@@H](n2cnc3c(N)ncnc32)[C@H](O)[C@@H]1OP(=O)(O)O
The experiment in a line: radiochemical TLC acetyltransferase assay, one-site Hill fit. It is filed as biochemical, Escherichia coli. To be noted: 500 μM glucosamine-1-phosphate, 20 mM MgCl2, 37 °C, labelled compound.

B1: GlmU (Escherichia coli K-12) (protein)
chain: MLNNAMSVVILAAGKGTRMYSDLPKVLHTLAGKAMVQHVIDAANELGAAHVHLVYGHGGDLLKQALKDDNLNWVLQAEQLGTGHAMQQAAPFFADDEDILMLYGDVPLISVETLQRLRDAKPQGGIGLLTVKLDDPTGYGRITRENGKVTGIVEHKDATDEQRQIQEINTGILIANGADMKRWLAKLTNNNAQGEYYITDIIALAYQEGREIVAVHPQRLSEVEGVNNRLQLSRLERVYQSEQAEKLLLAGVMLRDPARFDLRGTLTHGRDVEIDTNVIIEGNVTLGHRVKIGTGCVIKNSVIGDDCEISPYTVVEDANLAAACTIGPFARLRPGAELLEGAHVGNFVEMKKARLGKGSKAGHLTYLGDAEIGDNVNIGAGTITCNYDGANKFKTIIGDDVFVGSDTQLVAPVTVGKGATIAAGTTVTRNVGENALAISRVPQTQKEGWRRPVKKK
notes: full-length in pET28a, His-tag kept; expressed in E. coli BL21(DE3)
For B1, the Km (as a rule, the concentration of substrate that gives half-maximal velocity) was 400 µM.

The values are drawn from publication PMC8666670, “Malonyl-acyl carrier protein decarboxylase activity promotes fatty acid and cell envelope biosynthesis in Proteobacteria” (The Journal of Biological Chemistry, 2021).
